According to paper doi:10.1101/2020.08.02.233536 (bioRxiv, 2020):

Target: His-tagged SARS-CoV-2 RBD protein (binding studies) (SARS-CoV-2, UniProt P0DTC2)
Assay: BLI
Conditions: both partners purified

B1:  (antibody, V domains shown)
VH: QVQLVQSGAEVKKPGASVKVSCKASGYTFTSYYMHWVRQAPGQGLEWMGIINSSGGSTSYAQKFQGRVTMTRDTSTSTVYMELSSLRSEDTAVYYCARPPRNYYDSSGYYQRAEYFQHWGQGTLVTVSS
VL: DIQLTQSPSSLSASVGDRVTITCQASQDISNYLNWYQQRPGKAPKLLIYDASNLETGVPSRFSGSGSGTDFTFTISSLQPEDIATYYCQQYDNPPLTFGGGTKLEIK
notes: also called somatic revertant VH R100bS
B1: binds.
